Source: the supplement of paper PMC10567573

B1: FAM189A2 (parent)
chain: NLAGFILGCQGAQFVSSVPRCDLV
B2: LCOR (parent)
chain: YKVKERLGTLKNPPKKKMKLMSG

Variants of: B1
Experiment: protein stability index of a GFP-peptide fusion (GPS, HEK-293T) (PSI 1-6); higher = more stable
Conditions: c terminus: a fixed tail appended
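Also: lentivirally expressed fusions sorted by FACS into six bins by GFP to DsRed ratio, PSI derived from sequencing read proportions per bin multiplied by bin number.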

Variant | protein stability index
V24D | 1.76
V24S | 2.12
V24Q | 2.26
V24T | 1.53
V24F | 2.58
V24A | 1.72
V24P | 2.59
V24R | 2.19
V24K | 1.82
V24I | 2.26
V24C | 3.68
V24H | 3.38
V24E | 2.23
L23S | 1.93
L23G | 1.28
L23F | 3.42
L23K | 1.94
L23Y | 2.52
L23I | 2.33
L23P | 2.98
L23C | 3.66
L23W | 3.69
L23D | 2.45
L23R | 1.58

Variant | protein stability index
L23N | 2.75
C21H | 2.54
C21R | 1.64
C21N | 2.79
C21F | 2.92
C21T | 2.56
C21M | 2.81
C21D | 2.33
C21S | 1.68
C21A | 2.57
C21K | 3.12
C21Q | 2.07
R20Q | 1.45
R20Y | 1.75
D22V | 2.39
D22K | 2.59
D22P | 3.08
D22M | 2.78
D22C | 2.27
D22E | 1.18
D22G | 1.75
D22I | 2.13
D22F | 2.58
D22N | 3.21

Variants of: B2
Experiment: as above
Conditions: c terminus: native

Variant | protein stability index
V3R | 2.51
V3D | 2.36
V3L | 1.97
V3E | 2.08
V3N | 2.69
V3T | 1.91
V3K | 1.98
V3H | 1.89
V3S | 1.92
V3F | 1.62
V3W | 3.38
V3P | 2.27
V3Q | 3.06
V3M | 2.46
V3C | 1.6
V3G | 1.67
V3Y | 1.69
K11S | 1.55
K11M | 3.04
K11H | 1.79
K11I | 3.65
K11G | 3.44
K11Q | 1.44
K11E | 1.69

Variant | protein stability index
K11D | 1.76
K11Y | 2.48
K11N | 2.29
K11R | 2.39
K11A | 3.29
K11C | 2.02
T9N | 2.45
T9S | 2.19
T9M | 2.39
T9W | 3.03
T9L | 3.4
T9E | 1.53
T9G | 1.23
T9K | 2.06
T9H | 2.33
T9D | 2.17
T9R | 1.81
T9A | 1.96
T9I | 1.5
T9C | 2.2
T9Q | 2.64
T9V | 2.35
T9Y | 2.22
K17Q | 2.96

Variant | protein stability index
K17D | 1.83
K17G | 1.43
K17R | 2.22
K17P | 2.59
K17W | 1.83
K17V | 1.68
K17H | 2.02
K17I | 2.58
K17A | 2.41
K17T | 1.76
K17L | 1.34
K17F | 2.02
K17M | 1.94
K17S | 1.42
K17Y | 2.25
K17N | 1.83
K17E | 2.63
L10Y | 3.47
L10H | 1.85
L10K | 1.85
L10D | 1.86
L10S | 1.85
L10G | 1.35
L10Q | 1.52

Variant | protein stability index
L10F | 2.46
L10A | 2.38
L10I | 1.5
L10C | 2.19
L10N | 2.85
L10V | 2
L10P | 1.42
L10W | 2.42
L10M | 2.8
L10E | 2.04
L10R | 2.23
L10T | 2.52
K4Y | 2.3
K4L | 2.23
K4Q | 1.88
K4D | 1.45
K4A | 1.88
K4W | 3.3
K4H | 2.52
K4N | 2.97
K4E | 2.48
K4P | 1.35
K4V | 1.22
K4S | 1.93

Variant | protein stability index
K4G | 2.1
K4R | 3.6
K4M | 1.26
K16H | 1.49
K16M | 1.49
K16T | 1.78
K16V | 1.87
K16P | 1.93
K16E | 2.83
K16G | 2.57
K16Q | 2.17
K16I | 1.39
K16F | 1.45
K16Y | 2.98
K16R | 2.55
K16N | 1.76
K16D | 2.35
K16C | 1.15
K16W | 2.45
K16S | 1.46
K16L | 2.34
Y1F | 1.23
Y1W | 2.2
Y1E | 2.15

Variant | protein stability index
Y1D | 2.03
Y1V | 2.05
Y1K | 1.54
Y1M | 1.93
Y1P | 1.72
Y1N | 1.9
Y1L | 2.59
Y1S | 2.2
Y1G | 1.2
Y1A | 2.34
K15W | 3.79
K15N | 2.34
K15D | 2.06
K15Q | 1.84
K15L | 1.58
K15H | 2.34
K15S | 2.17
K15I | 3.63
K15R | 2.04
K15E | 2.66
K15P | 2.99
P14D | 1.71
P14N | 1.49
P14M | 3.42

Variant | protein stability index
P14Y | 3.03
P14G | 3.94
P14L | 1.32
P14W | 2.41
P14K | 1.77
P14S | 3.59
P14A | 1.42
P14I | 1.78
P14T | 1.63
P14C | 2.14
P14E | 1.37
P14H | 2.87
M18S | 1.52
M18R | 2.2
M18C | 1.82
M18W | 1.36
M18H | 2.03
M18E | 2.24
M18A | 2.49
M18N | 2.06
M18L | 1.81
M18T | 1.36
M18G | 2.59
M18Q | 2.23

Variant | protein stability index
M18V | 2
M18D | 3
M18I | 2.02
M18F | 1.98
M18P | 2.03
E5P | 2.25
E5H | 2.85
E5Q | 1.22
E5C | 1.74
E5N | 1.25
E5F | 2.71
E5T | 2.22
E5A | 1.75
E5S | 2.11
E5W | 3.07
E5K | 2.21
E5V | 2.94
E5I | 1.75
E5G | 2.44
E5R | 1.95
E5D | 1.78
N12I | 1.09
N12C | 3.3
N12R | 3.15

Variant | protein stability index
N12H | 2.7
N12E | 1.61
N12D | 1.65
N12T | 3.6
N12V | 1.86
N12M | 1.26
N12S | 1.72
N12A | 2.54
N12F | 1.86
N12G | 2.84
N12W | 2.83
N12Q | 2.6
N12Y | 2.39
N12P | 2.33
N12K | 2.25
K2S | 1.8
K2C | 1.79
K2G | 1.64
K2Y | 2.37
K2A | 1.48
K2N | 1.45
K2I | 1.72
K2V | 3.04
K2L | 3.05

Variant | protein stability index
K2Q | 1.31
K2D | 1.48
K2H | 1.88
K2E | 1.71
K2W | 3.46
G8A | 1.85
G8M | 1.69
G8K | 1.47
G8Y | 2.08
G8T | 2.16
G8L | 2.22
G8E | 2.72
G8I | 1.12
G8V | 2.33
G8S | 1.76
G8H | 1.92
G8C | 2.52
G8N | 1.27
G8P | 3.05
G8Q | 3.21
G8R | 1.4
P13S | 2.09
P13I | 2.27
P13A | 2.68

Variant | protein stability index
P13T | 2.42
P13N | 2.05
P13C | 2.03
P13R | 2.2
P13L | 2.02
P13K | 3.2
P13H | 2.49
P13G | 1.5
P13F | 2.63
P13V | 1.98
P13Q | 1.76
P13D | 1.93
P13E | 2.94
R6P | 2.47
R6S | 3.27
R6F | 2.2
R6Y | 2.14
R6T | 1.72
R6E | 2.17
R6K | 1.11
R6I | 2.49
R6G | 2.21
R6Q | 2.16
R6C | 4.96

Variant | protein stability index
R6L | 1.84
R6M | 2.5
R6W | 2.79
R6D | 1.46
L7D | 2.56
L7A | 2.49
L7E | 2.04
L7R | 1.06
L7W | 1.76
L7S | 1.55
L7P | 1.55
L7N | 2.53
L7C | 2.75
L7K | 1.98
L7F | 1.5
L7H | 1.84
L7G | 3.22
L7I | 2.14
L7Y | 1.53
L7Q | 1.52
L7M | 1.37
L7T | 1.85
